{"source": "paper PMC5777896", "about": "(The FEBS journal, 2017)", "molecules": {"B1": {"name": "full-length human Nfu (natural protein, UniProt Q9UMS0 10-254, looked up)", "chain": "GAAAVAAGLRRRFCHMLKNPYTIKKQPLHQFVQRPLFPLPAAFYHPVRYMFIQTQDTPNPNSLKFIPGKPVLETRTMDFPTPAAAFRSPLARQLFRIEGVKSVFFGPDFITVTKENEELDWNLLKPDIYATIMDFFASGLPLVTEETPSGEAGSEEDDEVVAMIKELLDTRIRPTVQEDGGDVIYKGFEDGIVQLKLQGSCTSCPSSIITLKNGIQNMLQFYIPEVEGVEQVMDDESDEKEANSP"}, "B2": {"name": "human Hsc20 (natural protein, UniProt Q8IWL3 72-235, looked up)", "chain": "DYFSLMDCNRSFRVDTAKLQHRYQQLQRLVHPDFFSQRSQTEKDFSEKHSTLVNDAYKTLLAPLSRGLYLLKLHGIEIPERTDYEMDRQFLIEIMEINEKLAEAESEAAMKEIESIVKAKQKEFTDNVSSAFEQDDFEEAKEILTKMRYFSNIEEKIKLKKIPL"}}, "key": {"human HSPA9 (human) [1]": {"molecular_target": "human HSPA9 (human) (UniProt P38646)", "sequence (P38646 47-679)": "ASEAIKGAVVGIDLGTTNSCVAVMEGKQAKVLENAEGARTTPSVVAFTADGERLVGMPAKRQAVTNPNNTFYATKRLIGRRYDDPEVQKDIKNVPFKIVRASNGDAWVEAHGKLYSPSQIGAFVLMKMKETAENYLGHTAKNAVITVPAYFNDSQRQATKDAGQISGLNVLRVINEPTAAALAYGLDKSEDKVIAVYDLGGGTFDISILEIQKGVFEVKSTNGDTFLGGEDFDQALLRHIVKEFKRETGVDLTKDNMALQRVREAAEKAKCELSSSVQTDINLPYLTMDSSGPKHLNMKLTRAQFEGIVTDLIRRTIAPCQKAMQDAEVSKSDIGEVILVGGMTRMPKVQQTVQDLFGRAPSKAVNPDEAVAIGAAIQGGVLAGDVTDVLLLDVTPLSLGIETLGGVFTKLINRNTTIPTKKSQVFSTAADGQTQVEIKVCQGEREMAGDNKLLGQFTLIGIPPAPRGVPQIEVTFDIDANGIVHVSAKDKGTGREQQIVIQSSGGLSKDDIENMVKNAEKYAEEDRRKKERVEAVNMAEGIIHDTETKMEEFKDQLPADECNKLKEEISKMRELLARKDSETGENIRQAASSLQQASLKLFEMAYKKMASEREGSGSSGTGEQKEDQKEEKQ", "test": "ITC"}, "human HSPA9 (human) [2]": {"molecular_target": "human HSPA9 (human) (UniProt P38646)"}, "human HSPA9 (human) [3]": {"molecular_target": "human HSPA9 (human) (UniProt P38646)", "test": "ITC", "remark": "listed apart in the source"}, "human HSPA9 (human) [4]": {"molecular_target": "human HSPA9 (human) (UniProt P38646)", "test": "ITC", "remark": "listed apart in the source"}, "human Hsc20 (human) [5]": {"molecular_target": "human Hsc20 (human) (UniProt Q8IWL3)", "test": "ITC"}, "human HSPA9 (human) [6]": {"molecular_target": "human HSPA9 (human) (UniProt P38646)", "test": "ITC", "remark": "listed apart in the source"}, "human Hsc20 (human) [7]": {"molecular_target": "human Hsc20 (human) (UniProt Q8IWL3)", "test": "ITC", "remark": "listed apart in the source"}, "IscU (Escherichia coli)": {"molecular_target": "IscU (Escherichia coli) (UniProt P0ACD4)", "sequence (P0ACD4 whole entry)": "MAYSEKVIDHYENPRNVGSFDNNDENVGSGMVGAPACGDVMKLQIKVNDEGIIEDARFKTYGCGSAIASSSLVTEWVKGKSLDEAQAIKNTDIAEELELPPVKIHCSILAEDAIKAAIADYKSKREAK", "test": "SPR", "settings": "cited from earlier work"}, "human HSPA9 [8]": {"molecular_target": "T1, human HSPA9 (human, UniProt P38646 47-679)", "T1 sequence (P38646 47-679)": "as the sequence (P38646 47-679) above", "test": "cell-based or functional assay"}, "human HSPA9 [9]": {"molecular_target": "T1, human HSPA9", "test": "ITC"}, "human Hsc20": {"molecular_target": "B2", "test": "ITC"}, "[10]": {"molecular_target": "T2, human HSPA9/Hsc20 complex (human, UniProt P38646 47-679; Q8IWL3 72-235)", "T2 sequence (P38646 47-679, one chain of several)": "as the sequence (P38646 47-679) above", "test": "ITC"}, "[11]": {"molecular_target": "T2, human HSPA9/Hsc20 complex", "test": "ITC", "remark": "listed apart in the source"}, "human HSPA9 [12]": {"molecular_target": "T1, human HSPA9", "test": "ITC", "remark": "listed apart in the source"}, "full-length human Nfu": {"molecular_target": "B1", "test": "ITC"}}, "note": "Where two headings read alike, the source gives them in different places."}
{"molecule": "C-terminal domain of human Nfu (from UniProt Q9UMS0 10-254) (domain or fragment)", "values": [{"measurement": "Kd", "setting": "human HSPA9 (human) [1]", "value": 18, "unit": "µM"}, {"measurement": "dH", "setting": "human HSPA9 (human) [1]", "value": -7.3, "unit": "kcal/mol"}, {"measurement": "Vmax (maximum ratio of stimulation) of HSPA9 ATPase activity by C-Nfu, 0~150 µM", "setting": "human HSPA9 (human) [2]", "value": 2.44, "unit": "fold"}, {"measurement": "Kd", "setting": "human HSPA9 (human) [3]", "value": 30.3, "unit": "µM"}, {"measurement": "dH", "setting": "human HSPA9 (human) [3]", "value": -2, "unit": "kcal/mol"}, {"measurement": "stoichiometry N", "setting": "human HSPA9 (human) [3]", "value": 0.907}, {"measurement": "Kd", "setting": "human HSPA9 (human) [4]", "value": 14.9, "unit": "µM"}, {"measurement": "dH", "setting": "human HSPA9 (human) [4]", "value": -3.82, "unit": "kcal/mol"}, {"measurement": "stoichiometry N", "setting": "human HSPA9 (human) [4]", "value": 0.88}, {"measurement": "Kd", "setting": "human Hsc20 (human) [5]", "value": 11, "unit": "µM"}, {"measurement": "dH", "setting": "human Hsc20 (human) [5]", "value": -1.7, "unit": "kcal/mol"}, {"measurement": "stoichiometry N", "setting": "human Hsc20 (human) [5]", "value": 0.94}, {"measurement": "Kd", "setting": "human HSPA9 (human) [6]", "value": 51, "unit": "µM"}, {"measurement": "dH", "setting": "human HSPA9 (human) [6]", "value": -3.2, "unit": "kcal/mol"}, {"measurement": "Kd", "setting": "human Hsc20 (human) [7]", "value": 10, "unit": "µM"}, {"measurement": "dH", "setting": "human Hsc20 (human) [7]", "value": -0.57, "unit": "kcal/mol"}, {"measurement": "stoichiometry N", "setting": "human Hsc20 (human) [7]", "value": 0.79}]}
{"molecule": "HscA (from UniProt P0A6Z1)", "values": [{"measurement": "Kd", "setting": "IscU (Escherichia coli)", "value": 39, "unit": "µM"}]}
{"molecule": "B1", "values": [{"measurement": "Vmax (maximum ratio of stimulation) of HSPA9 ATPase activity by Nfu, 0~150 µM", "setting": "human HSPA9 [8]", "value": 3.78, "unit": "fold"}, {"measurement": "Kd", "setting": "human HSPA9 [9]", "value": "36 ± 4", "unit": "µM"}, {"measurement": "dH", "setting": "human HSPA9 [9]", "value": "-4.9 ± 0.1", "unit": "kcal/mol"}, {"measurement": "stoichiometry N", "setting": "human HSPA9 [9]", "value": "0.9 ± 0.2"}, {"measurement": "stoichiometry N", "setting": "human Hsc20", "value": "0.93 ± 0.06"}, {"measurement": "Kd", "setting": "[10]", "value": "9.43 ± 0.07", "unit": "µM"}, {"measurement": "dH", "setting": "[10]", "value": "-1.7 ± 0.1", "unit": "kcal/mol"}, {"measurement": "stoichiometry N", "setting": "[10]", "value": "0.985 ± 0.04"}, {"measurement": "Kd", "setting": "[11]", "value": "0.3 ± 0.1", "unit": "µM"}, {"measurement": "dH", "setting": "[11]", "value": "-3.4 ± 0.1", "unit": "kcal/mol"}, {"measurement": "stoichiometry N", "setting": "[11]", "value": "0.95 ± 0.02"}, {"measurement": "Kd", "setting": "human HSPA9 [12]", "value": "8.3 ± 1.4", "unit": "µM"}, {"measurement": "dH", "setting": "human HSPA9 [12]", "value": "-6.3 ± 0.7", "unit": "kcal/mol"}, {"measurement": "stoichiometry N", "setting": "human HSPA9 [12]", "value": "0.9 ± 0.1"}]}
{"molecule": "B2", "values": [{"measurement": "Kd", "setting": "full-length human Nfu", "value": "10 ± 1", "unit": "µM"}]}
